The results in this text go back to US20110311499A1 (University of Washington, published 2011).

Experiment [1] deals with T1, Tse3-His6 (purified Tse3, PA3484, with C-terminal hexahistidine tag) (Pseudomonas aeruginosa PAO1, UniProt Q9HYC5 1-408).
T1 construct: not shown: C-terminal hexahistidine tag (six His) from pET29b+
T1 sequence: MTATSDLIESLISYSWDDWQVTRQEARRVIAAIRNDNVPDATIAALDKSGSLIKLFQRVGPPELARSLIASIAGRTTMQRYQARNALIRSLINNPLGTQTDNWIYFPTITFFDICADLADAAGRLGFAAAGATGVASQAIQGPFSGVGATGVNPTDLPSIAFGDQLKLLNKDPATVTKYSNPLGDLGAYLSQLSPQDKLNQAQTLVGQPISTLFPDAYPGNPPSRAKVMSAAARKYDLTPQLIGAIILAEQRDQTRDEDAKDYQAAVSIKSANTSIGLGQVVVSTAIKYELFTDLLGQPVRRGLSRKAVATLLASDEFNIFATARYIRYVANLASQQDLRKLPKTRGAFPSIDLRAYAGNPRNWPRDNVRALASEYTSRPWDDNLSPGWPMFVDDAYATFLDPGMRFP
Put plainly: co-immunoprecipitation (FIG. 17a).

In experiment [2] the target is T2, Tse1-His6 (purified Tse1, PA1844, with C-terminal hexahistidine tag) (Pseudomonas aeruginosa PAO1, UniProt Q9I2Q1 1-154).
T2 construct: not shown: C-terminal hexahistidine tag (six His) from pET29b+
T2 sequence: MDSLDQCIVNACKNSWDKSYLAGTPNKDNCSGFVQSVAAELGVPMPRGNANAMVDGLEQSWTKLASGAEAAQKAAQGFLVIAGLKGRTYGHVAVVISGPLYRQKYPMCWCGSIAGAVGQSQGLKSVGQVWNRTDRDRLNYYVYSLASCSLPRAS
Put plainly: co-immunoprecipitation (FIG. 17a).

B1: Tsi3-V (type VI secretion immunity protein 3 fused to the VSV-G epitope) (other)
chain: CTAESGVDFDKTLTHPNGLVVERPVGFDARRSAEGFRFDEGGKLRNPRQLEVQRQDAPPPPDLASRRLGDGEARYKVEEDDGGSAGSEYRLWAAKPAGARWIVVSASEQSEDGEPTFALAWALLERARLQ
Turning to B1, the binding result in experiment [1] is “binds”.

B2: Tsi1-V (type VI secretion immunity protein 1 fused to the VSV-G epitope) (other)
chain: ADCTFTQLEIVPQFGSPNMFGGEDEHVRVMFSNEDPNDDNPDAFPEPPVYLADRDSGNDCRIEDGGIWSRGGVFLSQDGRRVLMHEFSGSSAELVSYDSATCKVVHREDISGQRWAVDKDGLRLGQKCSGESVDSCAKIVKRSLAPFCQTAKK
Consider B2, for which the binding result in experiment [2] is listed as “binds”.
